Target: His-tagged FtsZ (filamentous temperature-sensitive protein Z) (Streptococcus suis)
Test: SPR; His-tagged FtsZ immobilized onto sensor chips as the ligand; MsmK constructs in concentration series as analytes; buffer without protein as negative control

| Substance | Kd | koff | kon |
| --- | --- | --- | --- |
| A_MsmK, MsmK with the Walker A motif deleted, His-tagged (from UniProt A0A0H3N1P0 1-376) (enzyme) | 0.406 nM | 0.000102 s⁻¹ | 251000 M⁻¹ s⁻¹ |
| B_MsmK, MsmK with the Walker B motif deleted, His-tagged (from UniProt A0A0H3N1P0 1-376) (enzyme) | 0.309 nM | 0.000132 s⁻¹ | 427000 M⁻¹ s⁻¹ |
